Consider 2 molecules from patent publication US20150329642A1 (Genmab, published 2015).

In assay [1] the target is T1, recombinant human c-Met extracellular domain (R&D systems) (human, UniProt P08581 25-932).
T1 construct: extracellular domain; Bought reagent; also called coated extracellular domain of c-Met; recombinant c-Met
The assay is described as follows: competition ELISA, residual Europium-HGF signal at 615 nm at the lower plateau of the fit; sheet prints no competing mAb ~66000, no HGF-Europium ~600; lower panel. Here is the method: ELISA wells were coated overnight at 4° C. with 0.5 μg/mL recombinant human c-Met extracellular domain (R&D systems, Minneapolis, USA) diluted in PBS. Next, the ELISA wells were washed with PBST (PBS supplemented with 0.05% Tween-20 [Sigma-Aldrich, Zwijndrecht, The Netherlands]) and blocked for one hour at room temperature (RT) with PBST supplemented with 2% (v/v) chicken serum (Gibco, Paisley, Scotland). […] Mean fluorescence intensity at 615 nm was measured using the EnVision 2101 Multilabel reader (PerkinElmer) applying the following settings: Lance/Delfia dual mirror, emission filter 615, excitation filter 340 nm, delay time 400 μs, window 400 μs, 100 flashes, 2000 μs per cycle and bidirectional row-by-row reading. To determine IC₅₀ values, the binding curves were analyzed with non-linear regression (sigmoidal dose-response with variable slope, top-values constrained to a shared value for all data-sets) using GraphPad Prism V4.03 software (GraphPad Software, San Diego, Calif., USA).
FIG. 5 depicts representative examples of HGF binding inhibition curves of anti-c-Met antibodies for binding to the extracellular domain of recombinant human c-Met. 5D5 was used as positive control antibody. All anti-c-Met antibodies in the experiment shown were able to compete with Europium^{3±}-conjugated HGF for binding to recombinant c-Met. […] Without adding Europium³⁺-conjugated HGF, roughly ˜600 relative fluorescent units (RFU) were detected, indicating the signal when maximal inhibition is accomplished. When binding of Europium³⁺-conjugated HGF was not inhibited, approximately ˜66,000 RFU were detected.

The target of a further assay is T2, cMetECDHis (human, UniProt P08581 25-932, limits assumed, biotinylated in the cross-block ELISA of Example 17).
T2 construct: Expressed in HEK-293F cells; also called soluble cMetECDHis; biotinylated cMetECDHis
The assay is described as follows: cross-block ELISA; competitor 181. Here is the method: First, the optimal coating concentrations of the tested anti-c-Met antibodies and the optimal cMetECDHis concentration were determined. Therefore, ELISA wells were coated overnight at 4° C. with anti-c-Met HuMabs serially diluted in PBS (8 μg/mL in 2-fold dilutions). Next, the ELISA wells were washed with PBST (PBS supplemented with 0.05% Tween-20 [Sigma-Aldrich, Zwijndrecht, The Netherlands]) and blocked for one hour at room temperature (RT) with PBSTC (PBST supplemented 2% [v/v] chicken serum [Gibco, Paisley, Scotland]). Subsequently, the ELISA wells were washed with PBST and incubated for one hour at RT with biotinylated cMetECDHis serially diluted in PBSTC (1 μg/mL in 2-fold dilutions). Unbound biotinylated cMetECDHis was washed away with PBST, and bound biotinylated cMetECDHis was incubated for one hour at RT with 0.1 μg/mL Streptavidin-poly-HRP (Sanquin, Amsterdam, The Netherlands) diluted in PBST.
ELISA wells were coated with anti-c-Met antibody at a sub-optimal dose as described above. After blocking of the ELISA wells, they were incubated with the predetermined concentration of biotinylated cMetECDHis in the presence of an excess of anti-c-Met antibody. The reaction was developed as described above. Residual binding was expressed as a percentage relative to the binding observed in the absence of competitor antibody.

In a further assay the target is T3, cMetSEMA-567His8 (human, UniProt P08581 25-567, limits assumed).
T3 construct: In the TR-FRET assay detected by anti-6xhis Europium3+; also called cMetSEMAHis; SEMA domain of c-Met; not shown: C-terminal His tag; the text says His9, the construct name says His8
The assay is described as follows: TR-FRET; displacement of AlexaFluor-647-HGF from cMetSEMA-567His8. Here is the method: Therefore, the interaction of anti-c-Met antibodies with the SEMA domain of the c-Met receptor was studied using TR-FRET technology. […] The mean fluorescent intensity at 665 nm was measured on the EnVision 2101 Multilabel reader (PerkinElmer).
A 4-fold serial dilution of unlabeled anti-c-Met antibody ranging from 0.49-8000 ng/mL was tested. After overnight incubation at 4° C. in the dark, mean fluorescence intensity at 665 nm was measured using the EnVision 2101 Multilabel reader applying the following settings: Lance/Delfia dual mirror, emission filter 615-665 nm, excitation filter 320 nm, delay time 60 μs, window 100 μs, 100 flashes, 2000 μs per cycle and bidirectional row-by-row reading. To determine IC₅₀ values, the binding curves were analyzed with non-linear regression (sigmoidal dose-response with variable slope) using GraphPad Prism V4.03 software (GraphPad Software, San Diego, Calif., USA).

B1: anti-c-Met HuMab 101 (IgG1) (antibody, V domains shown)
VH: QVQLVQSGGEVKKPGASVKVSCKASGYTFTRHGITWVRQAPGQGLEWMGWISADNGNTNYAQKFQDRVTMTTDTSTSTAYMELRSLRSDDTAVYFCARVFRYFDWLLPYFDYWGQGTLVTVST
VL: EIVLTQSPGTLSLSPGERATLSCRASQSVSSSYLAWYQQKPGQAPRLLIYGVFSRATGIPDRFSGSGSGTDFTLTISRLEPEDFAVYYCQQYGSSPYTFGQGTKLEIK
Consider B1, for which the Bottom in assay [1] was found to be 8380 RFU. The “residual binding, % of no competitor” value with cMetECDHis amounted to 41.9%. In the assay with cMetSEMA-567His8, the “% inhibition” value came out at 96% and the IC50 is 0.53 µg/mL.

B2: anti-c-Met HuMab 098 (IgG1) (antibody, V domains shown)
VH: QVQLVQSGAEVKKPGASVKVSCKASGYTFTNFGISWVRQAPGQGLEWMGWISAFNGHTDYSQKVQGRVTMTTDTSTSTAYMELRSLRSDDTAVFYCARSHYYGSGSPFDYWGQGTLVTVSS
VL: DIQMTQSPSSLSASVGDRVTITCRASQGISNWLAWYQQKPEKAPKSLIYAASSLQSGVPSRFSGSGSGTDFTLTISSLQPEDFATYYCHQYKSYPWTFGQGTKVEIK
notes: also called TH1016-098; PC1016-098
In the case of B2, in assay [1], the Bottom came to 12700 RFU. For the same molecule, the “residual binding, % of no competitor” value with cMetECDHis amounted to 12%. Further, in the assay with cMetSEMA-567His8, the “% inhibition” value stood at 98% and the IC50 is 0.55 µg/mL.
